{"source": "the supplement of paper PMC10126150", "note": "± gives the standard deviation of the averaged measurements.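 Note: ATP exposure 15 min at 22 °C before imaging.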"}
{"system": "ATP", "test": "switch fluorescence ratio, 500 uM ATP over buffer (Cy3 cluster intensity, sum of 5 cycles each) (fold (ratio)); higher = stronger signal-on switching upon ATP binding; sequences stand for … in TCGTCGGCAGCGTCAGATGTGTATAAGAGACAGTTTTTTTTTTTTTTTTTTTTTTTTT…TC", "conditions": "aptamer strand: ATP DNA aptamer (quencher-CACCTGGGGGAGTATTGCGGAGGAAGG + anchor), 100 nM annealed; ATP concentration: 500 uM", "procedure,_shortened": "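Between each of five buffer/ATP cycles, the flow-cell was stripped with NaOH and re-annealed. Each cycle imaged Cy3-labelled switching-strand clusters, annealed to 100 nM quencher-labelled ATP aptamer on a modified Illumina MiSeq flow-cell, first in selection buffer and then after 15 min with 500 uM ATP at 22 °C. The fluorescence ratio is summed target-cycle over summed buffer-cycle Cy3 intensity per cluster, averaged per switch-domain sequence, with clusters outside 100-1000 RFU excluded.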"}
{"sequence": "TGCTTTTTTT", "switch fluorescence ratio": "0.966 ± 0.024"}
{"sequence": "TGGAAAAGAT", "switch fluorescence ratio": "0.995 ± 0.016"}
{"sequence": "TGGAAAAGCG", "switch fluorescence ratio": "0.976 ± 0.012"}
{"sequence": "TGGAAAGGCG", "switch fluorescence ratio": "1.04 ± 0.06"}
{"sequence": "TGGAAATAAA", "switch fluorescence ratio": "0.9968 ± 0.0051"}
{"sequence": "TGGAAATTTG", "switch fluorescence ratio": "1.01 ± 0.036"}
{"sequence": "TGGAAGATGT", "switch fluorescence ratio": "1.02 ± 0.03"}
{"sequence": "TGGAAGGTTT", "switch fluorescence ratio": "1.08 ± 0.11"}
{"sequence": "TGGAATAGAA", "switch fluorescence ratio": "1.01 ± 0.02"}
{"sequence": "TGGAATAGGG", "switch fluorescence ratio": "0.992 ± 0.011"}
{"sequence": "TGGAATGGAA", "switch fluorescence ratio": "0.9717 ± 0.0076"}
{"sequence": "TGGAATTGGA", "switch fluorescence ratio": "1.03 ± 0.093"}
{"sequence": "TGGAATTTAA", "switch fluorescence ratio": "0.984 ± 0.017"}
{"sequence": "TGGACGAGGG", "switch fluorescence ratio": "0.992 ± 0.041"}
{"sequence": "TGGAGAAATT", "switch fluorescence ratio": "0.952 ± 0.13"}
{"sequence": "TGGAGAAGGC", "switch fluorescence ratio": "0.977 ± 0.12"}
{"sequence": "TGGAGATAGG", "switch fluorescence ratio": "0.994 ± 0.016"}
{"sequence": "TGGAGATTTT", "switch fluorescence ratio": "1.015 ± 0.0062"}
{"sequence": "TGGAGCCAGG", "switch fluorescence ratio": "1.08 ± 0.064"}
{"sequence": "TGGAGCCTAT", "switch fluorescence ratio": "0.991 ± 0.031"}
{"sequence": "TGGAGCTGGG", "switch fluorescence ratio": "1.31 ± 0.5"}
{"sequence": "TGGAGGGGTA", "switch fluorescence ratio": "1.05 ± 0.053"}
{"sequence": "TGGAGGTAGT", "switch fluorescence ratio": "0.993 ± 0.033"}
{"sequence": "TGGAGGTTTT", "switch fluorescence ratio": "1.07 ± 0.045"}
{"sequence": "TGGAGTAGC", "switch fluorescence ratio": "1.07 ± 0.078"}
{"sequence": "TGGAGTCCAT", "switch fluorescence ratio": "1.026 ± 0.0098"}
{"sequence": "TGGAGTGCTT", "switch fluorescence ratio": "0.983 ± 0.0022"}
{"sequence": "TGGAGTGGAG", "switch fluorescence ratio": "0.989 ± 0.023"}
{"sequence": "TGGATAAGGA", "switch fluorescence ratio": "0.983 ± 0.013"}
{"sequence": "TGGATAATCG", "switch fluorescence ratio": "0.996 ± 0.024"}
{"sequence": "TGGATAATTT", "switch fluorescence ratio": "0.9962 ± 0.0084"}
{"sequence": "TGGATATGTG", "switch fluorescence ratio": "1.01 ± 0.018"}
{"sequence": "TGGATCTGCC", "switch fluorescence ratio": "1.036 ± 0.0056"}
{"sequence": "TGGATCTGCG", "switch fluorescence ratio": "1.01 ± 0.023"}
{"sequence": "TGGATGAGGG", "switch fluorescence ratio": "0.99 ± 0.03"}
{"sequence": "TGGATGGGAG", "switch fluorescence ratio": "0.9922 ± 0.0028"}
{"sequence": "TGGATGGGCT", "switch fluorescence ratio": "1.03 ± 0.037"}
{"sequence": "TGGATGGGGC", "switch fluorescence ratio": "1 ± 0.012"}
{"sequence": "TGGATGGTGG", "switch fluorescence ratio": "0.9906 ± 0.0024"}
{"sequence": "TGGATTAGGG", "switch fluorescence ratio": "1 ± 0.023"}
{"sequence": "TGGATTAGTT", "switch fluorescence ratio": "0.96734 ± 0.00041"}
{"sequence": "TGGATTGTGT", "switch fluorescence ratio": "0.9735 ± 0.0032"}
{"sequence": "TGGATTTACT", "switch fluorescence ratio": "1.01 ± 0.031"}
{"sequence": "TGGATTTTTT", "switch fluorescence ratio": "0.996 ± 0.036"}
{"sequence": "TGGCAGGAAT", "switch fluorescence ratio": "0.9766 ± 0.0014"}
{"sequence": "TGGCAGGGAT", "switch fluorescence ratio": "1.02 ± 0.067"}
{"sequence": "TGGCAGGTTT", "switch fluorescence ratio": "1.015 ± 0.01"}
{"sequence": "TGGCATGTGT", "switch fluorescence ratio": "0.986 ± 0.033"}
{"sequence": "TGGCCGGGGG", "switch fluorescence ratio": "1 ± 0.02"}
{"sequence": "TGGCCTAATG", "switch fluorescence ratio": "0.965 ± 0.013"}
{"sequence": "TGGCCTGGGG", "switch fluorescence ratio": "0.979 ± 0.025"}
{"sequence": "TGGCGAAGAG", "switch fluorescence ratio": "0.999 ± 0.011"}
{"sequence": "TGGCGCACAA", "switch fluorescence ratio": "1.07 ± 0.013"}
{"sequence": "TGGCGCCCGT", "switch fluorescence ratio": "1.08 ± 0.11"}
{"sequence": "TGGCGCCCTG", "switch fluorescence ratio": "0.998 ± 0.069"}
{"sequence": "TGGCGGAAAG", "switch fluorescence ratio": "0.977 ± 0.025"}
{"sequence": "TGGCGGAATT", "switch fluorescence ratio": "1.02 ± 0.02"}
{"sequence": "TGGCGGCCGA", "switch fluorescence ratio": "0.996 ± 0.021"}
{"sequence": "TGGCGGGATA", "switch fluorescence ratio": "1.009 ± 0.0013"}
{"sequence": "TGGCGGGGAG", "switch fluorescence ratio": "0.998 ± 0.021"}
{"sequence": "TGGCGGGGGT", "switch fluorescence ratio": "0.981 ± 0.012"}
{"sequence": "TGGCGGTGAC", "switch fluorescence ratio": "1.02 ± 0.01"}
{"sequence": "TGGCGTAGTA", "switch fluorescence ratio": "1.01 ± 0.051"}
{"sequence": "TGGCGTCTTA", "switch fluorescence ratio": "0.9875 ± 0.0033"}
{"sequence": "TGGCGTTGTG", "switch fluorescence ratio": "0.9928 ± 0.0017"}
{"sequence": "TGGCTAGATA", "switch fluorescence ratio": "0.973 ± 0.041"}
{"sequence": "TGGCTATGCG", "switch fluorescence ratio": "0.969 ± 0.029"}
{"sequence": "TGGCTCAGTG", "switch fluorescence ratio": "1.024 ± 0.0018"}
{"sequence": "TGGCTGGTGT", "switch fluorescence ratio": "1.02 ± 0.08"}
{"sequence": "TGGCTGTCTT", "switch fluorescence ratio": "0.97 ± 0.13"}
{"sequence": "TGGCTTAACG", "switch fluorescence ratio": "0.961 ± 0.0041"}
{"sequence": "TGGCTTTTAA", "switch fluorescence ratio": "1.013 ± 0.007"}
{"sequence": "TGGGAAAATC", "switch fluorescence ratio": "1.63 ± 0.81"}
{"sequence": "TGGGAAAGGG", "switch fluorescence ratio": "1.01 ± 0.036"}
{"sequence": "TGGGAAATAG", "switch fluorescence ratio": "0.9957 ± 0.0041"}
{"sequence": "TGGGAAATGG", "switch fluorescence ratio": "1 ± 0.024"}
{"sequence": "TGGGAACCAG", "switch fluorescence ratio": "0.999 ± 0.015"}
{"sequence": "TGGGAACGCG", "switch fluorescence ratio": "1.003 ± 0.0076"}
{"sequence": "TGGGAAGAAT", "switch fluorescence ratio": "0.99323 ± 0.00037"}
{"sequence": "TGGGAAGACC", "switch fluorescence ratio": "1.02 ± 0.025"}
{"sequence": "TGGGAAGAGA", "switch fluorescence ratio": "1.02 ± 0.018"}
{"sequence": "TGGGAAGGGA", "switch fluorescence ratio": "1.2 ± 0.37"}
{"sequence": "TGGGAAGGGT", "switch fluorescence ratio": "0.996 ± 0.059"}
{"sequence": "TGGGAAGGTA", "switch fluorescence ratio": "0.999 ± 0.029"}
{"sequence": "TGGGAATATC", "switch fluorescence ratio": "1.05 ± 0.028"}
